Source: patent US9803012B2, “Compositions and methods for regulating SAS1R” (UNIVERSITY OF VIRGINIA PATENT FOUNDATION, priority 2005, dated 2017)

Legend:
Type in all cases: cell-based
[1] = test system: mouse sperm and mouse eggs; assay: Competitive assay of sperm-egg binding with recombinant mouse SLLP2; conditions: 5, 25, 50, 100 and 200 μg/ml, relative to BSA (200 μg/ml) or PBS controls
Description: (§1) For comparison to the use of human sperm SLLP2, an experiment was performed to determine if purified mouse SLLP2 would bind to Zona intact mouse eggs. […] Competitive assays were then performed to determine whether the addition of recombinant mouse SLLP2 to a mixture of mouse sperm and mouse eggs could inhibit binding of sperm and eggs. Various amounts of recombinant mouse SLLP2 were added (5, 25, 50, 100, and 200 μg/ml) and the number of sperm bound per egg was determined.

mouse eggs [2] = assay: Binding of SLLP2 to mouse eggs
Description: To analyze the biologic activity of human SLLP2, it was determined whether it would bind to an egg, in this case, a mouse egg.
as §1

mouse eggs [3] = assay: Fertilization of mouse eggs with mouse sperm with recombinant mouse SLLP2
Description: Recombinant mouse SLLP2 at concentrations of 25, 50, 100, and 200 μg/ml was incubated with sperm and egg, and compared to BSA and PBS controls as described above. It can be seen that fertilization occurred at a rate of about 75% in the BSA and PBS controls groups. […] Also provided are comparisons of human SLLP2 to other mammalian sequences, and well as a comparison indicating the conservation of SLLP2 ortholog in dogs.

mouse sperm-egg fusion = assay: Mouse sperm-egg fusion with recombinant mouse SLLP2; conditions: 100 or 200 μg/ml, relative to BSA and PBS controls
Description: Next, it was determined whether recombinant mouse SLLP2 could inhibit mouse sperm-egg fusion. In groups treated with recombinant mouse SLLP2 the number of sperm fused per egg was reduced to about 0.1 sperm fused per egg, at concentrations of 100 or 200 μg/ml recombinant mouse SLLP2, relative to BSA and PBS control treatments.

B1: recombinant mouse SLLP2: purified recombinant mouse sperm lysozyme-like protein 2 (mature protein SEQ ID NO:16) (protein, listed as Mus musculus)
chain: KIYERCELAKKLEEAGLDGFKGYTVGDWLCVAHYESGFDTSFVDHNPDGSSEYGIFQLNSAWWCNNGITPTQNLCNIDCNDLLNRHILDDIICAKRVASSHKSMKAWDSWTQHCAGHDLSEWLKGCSVRLKTDSSYNNW
For B1, the “number of sperm bound per egg” value [1] was “able to reduce the amount of binding occurring between sperm and egg”, the “binding to Zona-free mouse eggs” value (mouse eggs [2]; mouse SLLP2) was “would bind to Zona-free mouse eggs” and the “binding to Zona intact mouse eggs” value (mouse eggs [2]; purified mouse SLLP2) was “does indeed bind to mouse eggs”. For the same molecule, the inhibition of fertilization (mouse eggs [3]; 200 μg/ml) was “nearly totally inhibiting fertilization”, the inhibition of fertilization (mouse eggs [3]; 25, 50, 100 and 200 μg/ml, vs BSA and PBS controls) was “inhibited fertilization in a dose-dependent fashion” and the “number of sperm fused per egg” value (mouse sperm-egg fusion) was “about 0.1 sperm fused per egg”.
